Measurements from patent publication US20240409619A1.

How the values were obtained:
Experiment in all cases: cell-based or functional assay
[1] = biological target: SARS-COV-2 spike of variant B.1.351 (Beta) on pseudotyped virus (SARS-COV-2) (UniProt P0DTC2)
[2] = biological target: SARS-COV-2 spike of variant B.1.526 (Iota) on pseudotyped virus (SARS-COV-2) (UniProt P0DTC2)
[3] = biological target: SARS-COV-2 spike of variant B.1.1.7 (Alpha) on pseudotyped virus (SARS-COV-2) (UniProt P0DTC2)
[4] = biological target: SARS-COV-2 spike of variant B.1.617.2 (Delta) on pseudotyped virus (SARS-COV-2) (UniProt P0DTC2)

| Substance | fold change of pseudovirus neutralization against WA1/2020 [1] [fold] | fold reduction in ID50, pseudovirus neutralization [1] [fold] | fold reduction in ID50, pseudovirus neutralization [2] [fold] | fold reduction in ID50, pseudovirus neutralization [3] [fold] | fold reduction in ID50, pseudovirus neutralization [4] [fold] |
| --- | --- | --- | --- | --- | --- |
| DMAb REGN10987 (antibody) | < 3 |  |  |  |  |
| DMAb 2130_FcTM (antibody) |  | < 3 | < 3 | < 3 | < 3 |
